This assay addresses T1, human FLT3 (hFLT3) (human, UniProt P36888 27-543).
T1 construct: also called huFlt3; Fms-Like Tyrosine Kinase 3
T1 sequence (looked up): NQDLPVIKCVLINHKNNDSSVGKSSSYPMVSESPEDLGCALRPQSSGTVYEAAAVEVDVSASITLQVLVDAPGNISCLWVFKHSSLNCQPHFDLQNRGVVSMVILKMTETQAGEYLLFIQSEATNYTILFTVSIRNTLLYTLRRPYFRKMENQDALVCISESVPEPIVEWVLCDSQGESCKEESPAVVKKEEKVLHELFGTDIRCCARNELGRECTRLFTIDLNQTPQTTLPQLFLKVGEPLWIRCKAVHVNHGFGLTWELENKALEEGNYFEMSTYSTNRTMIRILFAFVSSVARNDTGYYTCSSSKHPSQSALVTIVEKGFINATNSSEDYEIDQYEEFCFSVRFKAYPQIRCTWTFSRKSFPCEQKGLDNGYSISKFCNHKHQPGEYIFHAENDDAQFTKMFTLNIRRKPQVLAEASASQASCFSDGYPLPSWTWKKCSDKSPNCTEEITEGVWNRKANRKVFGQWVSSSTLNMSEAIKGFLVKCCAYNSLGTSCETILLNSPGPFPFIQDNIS
Nature of the assay: SPR (Biacore T200), 37 C; IgG captured on anti-human Fc, hFLT3 as analyte. The procedure:
All experiments were performed on a Biacore T200 surface Plasmon resonance biosensor (GE Lifesciences, Piscataway N.J.).
The sensor chip preparation was performed at 25° C. with a running buffer of 10 mM HEPES, 150 mM NaCl, 0.05% (v/v) Tween-20, pH 7.4. An anti-human Fc sensor chip was made by activating all flow cells of a Biacore CM4 sensor chip with a 1:1 (v/v) mixture of 400 mM EDC and 100 mM NHS for 7 minutes, at a flow rate of 10 μL/min. An anti-human Fc reagent (Goat Anti-Human IgG Fc, Southern Biotech Catalog #2081-01) was diluted to 30 μg/mL in 10 mM Sodium Acetate pH 4.5 and injected on all flow cells for 7 minutes at 20 μL/min. All flow cells were blocked with 100 mM ethylenediamine in 150 mM Borate buffer pH 8.5 for 7 minutes at 10 μL/min.
The experiments were performed at 37° C. using a running buffer of 10 mM HEPES, 150 mM NaCl, 0.05% (v/v) Tween-20, pH 7.4, 1 mg/mL BSA. FLT3 antibodies were captured from undiluted supernatants onto downstream flow cells (flow cells 2, 3 and 4) at a flow rate of 10 μL/min for 1 minute. Different antibodies were captured on each flow cell. Flow cell 1 was used as a reference surface. Following capture of FLT3 antibodies, analyte (buffer, hFLT3) was injected at 30 μL/min on all flow cells for two minutes. After the analyte injection, dissociation was monitored for 10 minutes followed by regeneration of all flow cells with three 1-minute injections of 75 mM Phosphoric Acid. For each captured FLT3 antibody, the following analyte injections were performed: buffer, 11 nM hFLT3, 33 nM hFLT3, 100 nM hFLT3 and 300 nM hFLT3. Buffer cycles were collected for each captured FLT3 antibody for double-referencing purposes (double-referencing as described in Myszka, D. G. Improving biosensor analysis. J. Mol. Recognit. 12, 279-284 (1999)). The double-referenced sensorgrams were fit globally to a simple 1:1 Langmuir with mass transport binding model.
Background: In SPR one partner is held on a chip, and binding of the other changes the refractive index at the surface.

One may read the Kd as the equilibrium constant for the complex coming apart. A low value points to a tighter complex. What is called koff is the rate constant with which the complex falls apart. Broadly, the kon is the rate constant with which the complex forms. Low values mean slower complex formation, high ones faster complex formation.

B1: P12B6 (IgG format) (antibody, V domains shown)
VH: QVQLVQSGAEVKKPGSSVKVSCKASGGTFMSYAISWVRQAPGQGLEWMGGIIPIFGIANYAQKFQGRVTITADKSTSTAYMELSSLRSEDTAVYYCARETLIYPIPFELWGQGTLVTVSS
VL: EIVLTQSPGTLSLSPGERATLSCRASQIVSSSYLAWYQQKPGQAPRLLIYGASSRASGIPDRFSGSGSGTDFTLTISRLEPEDFAVYYCQQYGGSPYTFGQGTKVEIK
notes: IgG format, captured by anti-human Fc
The molecule B1 registered a Kd of 84 nM, a koff of 0.009 s⁻¹, a kon of 110000 M⁻¹ s⁻¹ and a t1/2 of 1.3 min.

B2: P1B11 (IgG format) (antibody, V domains shown)
VH: QVQLVQSGAEVKKPGSSVKVSCKASGGTFRSFDISWVRQAPGQGLEWMGRIIPILGYANYAQKFQGRVTITADESTSTAYMELSSLRSEDTAVYYCASDLGAPWAGYPFDPWGQGTLVTVSS
VL: EIVLTQSPGTLSLSPGERATLSCRASQSVSSSELAWYQQKPGQAPRLLIYDASSRATGIPDRFSGSGSGTDFTLTISRLEPEDFAVYYCQQYDSSPLTFGQGTKVEIK
notes: as for B1
The molecule B2 came in with a Kd of 45 nM, a koff of 0.0055 s⁻¹, a kon of 120000 M⁻¹ s⁻¹ and a t1/2 of 2.1 min.

B3: P1B4 (IgG format) (antibody, V domains shown)
VH: QVQLVQSGAEVKKPGSSVKVSCKASGGVFSRYALSWVRQAPGQGLEWMGGIIPMLGFANYAQKFQGRVTITADESTSTAYMELSSLRSEDTAVYYCATLDFGALDYWGQGTLVTVSS
VL: EIVLTQSPGTLSLSPGERATLSCRASQSVPNEQLAWYQQKPGQAPRLLIYDASSRATGIPDRFSGSGSGTDFTLTISRLEPEDFAVYYCQQYGSPPLTFGQGTKVEIK
notes: as for B1
The molecule B3 showed a Kd of 32 nM, a dissociation rate constant (koff) of 0.0058 s⁻¹, a kon of 180000 M⁻¹ s⁻¹ and a t1/2 of 2 min.

B4: P8B6 (IgG format) (antibody, V domains shown)
VH: QVQLVQSGAEVKKPGSSVKVSCKASGGTFSSYAVSWVRQAPGQGLEWMGGIIPIFGIANYAQKFQGRVTITADTSTSTAYMELSSLRSEDTAVYYCAIEGIGGDLRYDGYDAWGQGTLVTVSS
VL: EIVLTQSPGTLSLSPGERATLSCRASQSVSHSYLAWYQQKPGQAPRLLIYGASFRAAGIPDRFSGSGSGTDFTLTISRLEPEDFAVYYCQQYGSDPYTFGQGTKVEIK
notes: as for B1
With B4, binding was put at a Kd of 2.5 nM, the koff was 0.00023 s⁻¹, the kon was 93000 M⁻¹ s⁻¹ and the t1/2 worked out at 51 min.

B5: P3E10 (IgG format) (antibody, V domains shown)
VH: QVQLVQSGAEVKKPGSSVKVSCKASGGTFSSYAIQWVRQAPGQGLEWMGGIVGSWGLANYAQKFQGRVTITTDKSTSTAYMELSSLRSEDTAVYYCATSAFGELASWGQGTLVTVSS
VL: EIVLTQSPGTLSLSPGERATLSCRASQSVPSSQLAWYQQKPGQAPRLLIYDASSRATGIPDRFSGSGSGTDFTLTISRLEPEDFAVYYCQQYGSSPLTFGQGTKVEIK
notes: as for B1
B5 returned a Kd of 106 nM, a koff of 0.019 s⁻¹, a kon of 180000 M⁻¹ s⁻¹ and a t1/2 of 0.6 min.

B6: P1A5 (IgG format) (antibody, V domains shown)
VH: QVQLVQSGAEVKKPGSSVKVSCKASGGVFSRYALSWVRQAPGQGLEWMGGIIPMLGFANYAQKFQGRVTITADESTSTAYMELSSLRSEDTAVYYCATLDFGALDYWGQGTLVTVSS
VL: EIVLTQSPGTLSLSPGERATLSCRASQAVDSSDLAWYQQKPGQAPRLLIYDAYTRPSGIPDRFSGSGSGTDFTLTISRLEPEDFAVYYCQQYGSSPLTFGGGTKLEIK
notes: IgG format, captured by anti-human Fc; the entry printed as P1A5 is used
For the molecule B6, binding was characterised by a dissociation constant (Kd) of 0.19 nM, the koff was 0.000347 s⁻¹, the kon turned out to be 1.78e+06 M⁻¹ s⁻¹ and the t1/2 was 33 min.

B7: P9F1 (IgG format) (antibody, V domains shown)
VH: EVQLLESGGGLVQPGGSLRLSCAASGFIFSSFAMSWVRQAPGKGLEWVSDISGSGASTYYADSVKGRFTISRDNSKNTLYLQMNSLRAEDTAVYYCASASGGSGSYWPYMDPWGQGTLVTVSS
VL: QSVLTQPPSASGTPGQRVTISCSGSGSNIGSNYVYWYQQLPGTAPKLLIYRNNQRPSGVPDRFSGSKSGTSASLAISGLRSEDEADYYCAAWDGSLSRPVFGTGTKLTVL
notes: as for B1
Take B7: the Kd worked out at 127 nM, the koff amounted to 0.023 s⁻¹, the kon was determined as 180000 M⁻¹ s⁻¹ and the t1/2 is 0.5 min.

B8: P15F7 (IgG format) (antibody, V domains shown)
VH: EVQLLESGGGLVQPGGSLRLSCAASGFTFNNYAMNWVRQAPGKGLEWVSVISGSGGTTYYADSVKGRFTISRDNSKNTLYLQMNSLRAEDTAVYYCASGIWDLRYWGQGTLVTVSS
VL: DIQMTQSPSSLSASVGDRVTITCRASQSISTYLNWYQQKPGKAPKLLIYAASNLQSGVPSRFSGSGSGTDFTLTISSLQPEDFATYYCQQSYSIPLTFGQGTKVEIK
notes: as for B1
Consider B8, for which the Kd worked out at 38 nM, the koff was found to be 0.0055 s⁻¹, the kon was determined as 140000 M⁻¹ s⁻¹ and the t1/2 was 2.1 min.

B9: P14G2 (IgG format) (antibody, V domains shown)
VH: EVQLLESGGGLVQPGGSLRLSCAASGFTFSNYVMNWVRQAPGKGLEWVSAISGSGATTYYADSVKGRFTISRDNSKNTLYLQMNSLRAEDTAVYYCVSGLWAGGIWGQGTLVTVSS
VL: DIQMTQSPSSLSASVGDRVTITCRASQSISSYLNWYQQKPGKAPKLLIYDASDLQRGVPSRFSGSGSGTDFTLTISSLQPEDFATYYCQQSYNTPWTFGQGTKVEIK
notes: as for B1
In the case of B9, the Kd amounted to 8 nM, the koff amounted to 0.0011 s⁻¹, the kon was found to be 140000 M⁻¹ s⁻¹ and the t1/2 was found to be 10.7 min.

B10: P3A1 (IgG format) (antibody, V domains shown)
VH: QVQLVQSGAEVKKPGSSVKVSCKASGGTFSSYDISWVRQAPGQGLEWMGGIIPVSGRANYAQKFQGRVTITTDKSTSTAYMELSSLRSEDTAVYYCARVRPTYWPLDYWGQGTLVTVSS
VL: not shown
notes: as for B1
Molecule B10 displayed a Kd of 64 nM, a koff of 0.006 s⁻¹, a kon of 95000 M⁻¹ s⁻¹ and a t1/2 of 1.9 min.

B11: P5F7 (IgG format) (antibody, V domains shown)
VH: EVQLLESGGGLVQPGGSLRLSCAASGFTFSSYAMNWVRQAPGKGLEWVSSISGGGRSTYYADSVKGRFTISRDNSKNTLYLQMNSLRAEDTAVYYCARDLSPSDVGWGYGFDIWGQGTLVTVSS
VL: EIVLTQSPATLSLSPGERATLSCRASQSVSSNLAWYQQKPGQAPRLLIYDTFTRATGIPARFSGSGSGTDFTLTISRLEPEDFAVYYCQQYGSSPPTFGQGTRLEIK
notes: IgG format, captured by anti-human Fc; the VLs differ at the N-terminus; the first entry is used
Regarding B11, the equilibrium dissociation constant (Kd) is 0.24 nM, the koff was 0.000152 s⁻¹, the kon came to 636000 M⁻¹ s⁻¹ and the t1/2 was 76 min.

B12: P4H11 (IgG format) (antibody, V domains shown)
VH: EVQLLESGGGLVQPGGSLRLSCAASGFTFSSYAMNWVRQAPGKGLEWVSSISGGGRSTYYADSVKGRFTISRDNSKNTLYLQMNSLRAEDTAVYYCARDLSPSDVGWGYGFDIWGQGTLVTVSS
VL: EIVLTQSPGTLSLSPGERATLSCRASQSVSNTYLAWYQQKPGQAPRLLIYDTSSRATGIPDRFSGSGSGTDFTLTISRLEPEDFAVYYCQQYGSSLTFGQGTKVEIK
notes: as for B1
For the molecule B12, binding was characterised by a dissociation constant (Kd) of 233 nM, the koff stood at 0.0144 s⁻¹, the kon was determined as 61800 M⁻¹ s⁻¹ and the t1/2 came to 1 min.

Values taken from US20230059489A1 (Pfizer, published 2023).
